This is an account of results in paper PMC9475542 (2022).

The target of this experiment is DNMT1 (Homo sapiens, UniProt P26358). The experiment can be described thus: ELISA.
Sequence of DNMT1 (P26358 whole entry): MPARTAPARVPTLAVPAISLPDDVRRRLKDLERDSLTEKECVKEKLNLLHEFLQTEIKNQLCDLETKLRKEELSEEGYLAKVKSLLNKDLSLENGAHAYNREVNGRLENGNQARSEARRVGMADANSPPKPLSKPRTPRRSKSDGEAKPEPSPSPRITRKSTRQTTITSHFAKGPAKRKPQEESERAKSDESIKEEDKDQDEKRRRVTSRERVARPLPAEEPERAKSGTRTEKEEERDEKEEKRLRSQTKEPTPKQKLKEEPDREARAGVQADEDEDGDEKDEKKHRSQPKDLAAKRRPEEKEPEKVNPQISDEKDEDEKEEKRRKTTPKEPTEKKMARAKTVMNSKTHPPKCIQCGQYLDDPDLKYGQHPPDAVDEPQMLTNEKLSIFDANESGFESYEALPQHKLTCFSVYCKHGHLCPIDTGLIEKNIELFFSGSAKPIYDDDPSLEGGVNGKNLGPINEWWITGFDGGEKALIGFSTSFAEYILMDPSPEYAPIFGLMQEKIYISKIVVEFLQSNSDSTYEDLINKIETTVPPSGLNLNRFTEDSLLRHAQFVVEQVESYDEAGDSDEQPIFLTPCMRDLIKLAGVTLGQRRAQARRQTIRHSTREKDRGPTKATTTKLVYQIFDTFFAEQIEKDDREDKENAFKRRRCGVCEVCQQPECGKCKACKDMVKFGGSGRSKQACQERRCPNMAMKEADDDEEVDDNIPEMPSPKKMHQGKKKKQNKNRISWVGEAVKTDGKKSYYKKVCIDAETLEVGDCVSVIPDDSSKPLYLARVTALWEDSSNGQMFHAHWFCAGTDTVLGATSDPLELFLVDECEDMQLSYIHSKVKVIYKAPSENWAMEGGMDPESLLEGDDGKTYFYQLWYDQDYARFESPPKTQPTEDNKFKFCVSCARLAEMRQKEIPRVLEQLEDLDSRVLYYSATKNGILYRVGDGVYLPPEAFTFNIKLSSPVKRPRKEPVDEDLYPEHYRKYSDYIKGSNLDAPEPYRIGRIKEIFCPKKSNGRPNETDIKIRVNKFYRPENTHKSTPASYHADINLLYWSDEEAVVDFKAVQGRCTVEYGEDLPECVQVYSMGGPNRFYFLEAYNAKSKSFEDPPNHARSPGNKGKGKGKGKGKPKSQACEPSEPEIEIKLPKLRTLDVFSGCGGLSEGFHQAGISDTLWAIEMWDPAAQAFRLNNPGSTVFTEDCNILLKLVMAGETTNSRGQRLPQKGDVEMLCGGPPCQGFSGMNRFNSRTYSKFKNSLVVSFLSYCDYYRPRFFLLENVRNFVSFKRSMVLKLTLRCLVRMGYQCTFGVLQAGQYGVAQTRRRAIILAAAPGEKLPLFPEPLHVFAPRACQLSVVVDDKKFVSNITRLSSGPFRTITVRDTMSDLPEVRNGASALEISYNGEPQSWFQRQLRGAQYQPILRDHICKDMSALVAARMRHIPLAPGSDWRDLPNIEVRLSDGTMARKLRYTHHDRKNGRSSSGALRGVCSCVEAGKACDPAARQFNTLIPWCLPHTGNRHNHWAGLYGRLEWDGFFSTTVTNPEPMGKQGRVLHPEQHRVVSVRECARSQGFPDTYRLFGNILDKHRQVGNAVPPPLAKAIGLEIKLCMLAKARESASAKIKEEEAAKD

B1: CD133 (protein)
chain: GGQPSSTDAPKAWNYELPATNYETQDSHKAGPIGILFELVHIFLYVVQPRDFPEDTLRKFLQKAYESKIDYDKPETVILGLKIVYYEAGIILCCVLGLLFIILMPLVGYFFCMCRCCNKCGGEMHQRQKENGPFLRKCFAISLLVICIIISIGIFYGFVANHQVRTRIKRSRKLADSNFKDLRTLLNETPEQIKYILAQYNTTKDKAFTDLNSINSVLGGGILDRLRPNIIPVLDEIKSMATAIKETKEALENMNSTLKSLHQQSTQLSSSLTSVKTSLRSSLNDPLCLVHPSSETCNSIRLSLSQLNSNPELRQLPPVDAELDNVNNVLRTDLDGLVQQGYQSLNDIPDRVQRQTTTVVAGIKRVLNSIGSDIDNVTQRLPIQDILSAFSVYVNNTESYIHRNLPTLEEYDSYWWLGGLVICSLLTLIVIFYYLGLLCGVCGYDRHATPTTRGCVSNTGGVFLMVGVGLSFLFCWILMIIVVLTFVFGANVEKLICEPYTSKELFRVLDTPYLLNEDWEYYLSGKLFNKSKMKLTFEQVYSDCKKNRGTYGTLHLQNSFNISEHLNINEHTGSISSELESLKVNLNIFLLGAAGRKNLQDFAACGIDRMNYDSYLAQTGKSPAGVNLLSFAYDLEAKANSLPPGNLRNSLKRDAQTIKTIHQQRVLPIEQSLSTLYQSVKILQRTGNGLLERVTRILASLDFAQNFITNNTSSVIIEETKKYGRTIIGYFEHYLQWIEFSISEKVASCKPVATALDTAVDVFLCSYIIDPLNLFWFGIGKATVFLLPALIFAVKLAKYYRRMDSEDVYDDVETIPMKNMENGNNGYHKDHVYGIHNPVMTSPSQH
One may read the Kd as the equilibrium constant for the complex coming apart. Higher therefore signals a looser complex. Consider B1, for which the Kd was about 150 nM.
